Results reported in publication doi:10.1101/2020.05.26.116228, “Cataract-associated New Mutants S175G/H181Q of βB2-Crystallin and P24S/S31G of γD-Crystallin are Involved in Protein aggregation by Structural Changes” (bioRxiv, 2020).

Biological target: the molecule itself
Assay: SEC; Superdex 200 HR 10/30 in PBS (140 mM NaCl, 2.7 mM KCl, 10 mM Na2HPO4, pH 7.4), 0.5 mL/min; protein 2 mg/mL or 450 μg/100 μL (methods); markers albumin 66.4 kDa and α-lactalbumin 14.2 kDa; dimer in rapid equilibrium with monomer

B1: S175G/H181Q βB2-crystallin (natural protein, human)
chain: ASDHQTQAGKPQSLNPKIIIFEQENFQGHSHELNGPCPNLKETGVEKAGSVLVQAGPWVGYEQANCKGEQFVFEKGEYPRWDSWTSSRRTDSLSSLRPIKVDSQEHKIILYENPNFTGKKMEIIDDDVPSFHAHGYQEKVSSVRVQSGTWVGYQYPGYRGLQYLLEKGDYKDSGDFGAPQPQVQSVRRIRDMQWHQRGAFHPSN
notes: human βB2-crystallin with the double mutation found in nuclear cataract lenses, made by site-directed mutagenesis of pGEX-4t-1 CRBB2; also called S175G/H181Q mutant; CRBB2 S175G/H181Q; source: E. coli BL21 (DE3), purified (glutathione-agarose, cleaved from GST with thrombin)
binding result: binds
